From US20050227296A1 (GENERAL HOSPITAL CORPORATION A MASSACHUSETTS, published 2005)

Target: T1, complement iC3b on erythrocytes (EAiC3b) (human, UniProt P01024 23-667; P01024 749-1303; P01024 1321-1663, limits assumed)
T1 construct: iC3b is a multi-chain fragment of C3; also called human iC3b
Experiment: fluoresceinated EAiC3b on immobilized protein
Experimental: For the inhibition studies, E were preincubated with each recombinant protein or pure peptide in the presence of 2% BSA for 5 minutes at RT and added to wells coated with immobilized protein or peptide without washing, unless otherwise indicated. At the end of the binding reactions, wells were washed, examined briefly by light microscopy then solubilized with 1% SDS-0.2 N NaOH. Fluorescence was quantified (excitatory wavelength, 490 nm, emission wavelength, 510 nm) using a SLM 8000 fluorometer (SLM Instruments, Urbana, Ill.). In experiments where the effects of individual divalent cations were measured, Ca²⁺ and Mg²⁺ were replaced with metal-free buffers or with buffers containing each cation at 1. MM, unless otherwise indicated. The effect of temperature was evaluated in the presence of 1 mM MnCl₂ at 37° C. and at 4° C.

T1 sequence (P01024 23-667 limits assumed, chain 1 of 3): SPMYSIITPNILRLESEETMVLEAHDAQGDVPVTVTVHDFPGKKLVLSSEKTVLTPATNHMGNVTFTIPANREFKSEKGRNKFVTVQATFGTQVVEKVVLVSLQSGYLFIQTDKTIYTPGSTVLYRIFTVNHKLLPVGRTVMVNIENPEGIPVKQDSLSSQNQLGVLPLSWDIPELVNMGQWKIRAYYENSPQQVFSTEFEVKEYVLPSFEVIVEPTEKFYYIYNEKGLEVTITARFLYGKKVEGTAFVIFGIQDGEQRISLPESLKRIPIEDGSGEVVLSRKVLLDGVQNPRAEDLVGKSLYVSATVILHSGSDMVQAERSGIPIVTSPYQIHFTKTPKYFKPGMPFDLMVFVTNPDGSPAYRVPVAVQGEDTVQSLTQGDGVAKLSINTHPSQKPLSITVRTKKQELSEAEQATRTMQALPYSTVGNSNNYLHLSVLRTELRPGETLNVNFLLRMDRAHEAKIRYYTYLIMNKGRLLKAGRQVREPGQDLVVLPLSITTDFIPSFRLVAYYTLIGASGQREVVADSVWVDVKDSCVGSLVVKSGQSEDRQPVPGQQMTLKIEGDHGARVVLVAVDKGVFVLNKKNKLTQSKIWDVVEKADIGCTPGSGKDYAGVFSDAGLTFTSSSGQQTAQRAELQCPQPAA
T1 sequence (P01024 749-1303 limits assumed, chain 2 of 3): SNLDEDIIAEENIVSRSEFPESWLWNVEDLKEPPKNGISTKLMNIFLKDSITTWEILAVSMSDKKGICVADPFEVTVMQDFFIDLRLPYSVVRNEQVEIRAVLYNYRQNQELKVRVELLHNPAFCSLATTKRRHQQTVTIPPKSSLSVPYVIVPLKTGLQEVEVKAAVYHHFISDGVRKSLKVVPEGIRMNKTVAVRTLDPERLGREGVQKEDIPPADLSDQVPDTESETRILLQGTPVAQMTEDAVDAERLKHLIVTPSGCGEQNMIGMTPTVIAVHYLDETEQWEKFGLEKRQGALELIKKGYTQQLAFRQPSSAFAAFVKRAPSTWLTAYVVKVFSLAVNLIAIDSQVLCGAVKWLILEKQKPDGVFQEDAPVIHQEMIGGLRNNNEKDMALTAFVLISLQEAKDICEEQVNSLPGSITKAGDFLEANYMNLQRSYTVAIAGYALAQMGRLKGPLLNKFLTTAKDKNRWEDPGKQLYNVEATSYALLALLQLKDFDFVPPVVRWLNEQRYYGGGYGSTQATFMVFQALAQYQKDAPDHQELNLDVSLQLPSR
T1 sequence (P01024 1321-1663 limits assumed, chain 3 of 3): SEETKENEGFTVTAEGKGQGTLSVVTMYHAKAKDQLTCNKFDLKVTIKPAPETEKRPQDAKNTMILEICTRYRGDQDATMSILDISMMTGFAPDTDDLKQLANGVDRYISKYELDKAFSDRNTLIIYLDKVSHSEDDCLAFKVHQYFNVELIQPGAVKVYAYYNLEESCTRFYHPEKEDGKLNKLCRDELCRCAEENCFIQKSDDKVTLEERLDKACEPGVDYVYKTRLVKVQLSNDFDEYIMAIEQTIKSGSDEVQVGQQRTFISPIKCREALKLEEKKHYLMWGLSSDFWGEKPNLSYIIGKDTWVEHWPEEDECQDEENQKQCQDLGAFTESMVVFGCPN

B1: recombinant CD11a A domain (receptor, human, UniProt P20701 153-332, looked up)
chain: GNVDLVFLFDGSMSLQPDEFQKILDFMKDVMKKLSNTSYQFAAVQFSTSYKTEFDFSDYVKRKDPDALLKHVKHMLLLTNTFGAINYVATEVFREELGARPDATKVLIIITDGEATDSGNIDAAKDIIRYIIGIGKHFQTKESQETLHKFASKPASEFVKILDTFEKLKDLFTELQKKIY
notes: domain: A domain; Expressed as a GST fusion in E. coli, used as such or released by thrombin; also called r11aA; rCD11a A-domain
B1: no binding.
